How the values were obtained:
[1] = molecular target: recombinant KIR2DL1 protein (entire extracellular domain, produced in E. coli, refolded) (human) (UniProt P43626); assay: BIAcore competition on KIR2DL1 chip; first Ab DF200, second Ab (competitor) 1-6F1
[2] = molecular target: recombinant KIR2DL3 protein (entire extracellular domain, produced in E. coli, refolded) (human) (UniProt P43628); assay: BIAcore competition on KIR2DL3 chip; first Ab DF200, second Ab (competitor) 1-6F1
[3] = molecular target: recombinant KIR2DL3 protein (entire extracellular domain, produced in E. coli, refolded) (human) (UniProt P43628); assay: BIAcore competition on KIR2DL3 chip; first Ab DF200, second Ab (competitor) Pan2D
[4] = molecular target: recombinant KIR2DL3 protein (entire extracellular domain, produced in E. coli, refolded) (human) (UniProt P43628); assay: BIAcore competition on KIR2DL3 chip; first Ab DF200, second Ab (competitor) 1-4F1
[5] = molecular target: recombinant KIR2DL3 protein (entire extracellular domain, produced in E. coli, refolded) (human) (UniProt P43628); assay: BIAcore, second Ab on KIR2DL3 chip with first Ab (competitor) 1-4F1 bound
[6] = molecular target: recombinant KIR2DL3 protein (entire extracellular domain, produced in E. coli, refolded) (human) (UniProt P43628); assay: BIAcore, second Ab on KIR2DL3 chip with first Ab (competitor) 1-7F9 bound
[7] = molecular target: recombinant KIR2DL3 protein (entire extracellular domain, produced in E. coli, refolded) (human) (UniProt P43628); assay: BIAcore, direct binding of second Ab to KIR2DL3 chip (field of first Ab 1-4F1)
[8] = molecular target: recombinant KIR2DL3 protein (entire extracellular domain, produced in E. coli, refolded) (human) (UniProt P43628); assay: BIAcore competition on KIR2DL3 chip; first Ab DF200, second Ab (competitor) gl183
immobilized KIR2DS1 [9] = molecular target: immobilized KIR2DS1 (UniProt Q14954); assay: BIAcore, direct binding of second Ab to KIR2DS1 chip (field of first Ab 1-7F9)
[10] = molecular target: recombinant KIR2DL1 protein (entire extracellular domain, produced in E. coli, refolded) (human) (UniProt P43626); assay: BIAcore, second Ab on KIR2DL1 chip with first Ab (competitor) 1-7F9 bound
[11] = molecular target: recombinant KIR2DL3 protein (entire extracellular domain, produced in E. coli, refolded) (human) (UniProt P43628); assay: BIAcore, direct binding of second Ab to KIR2DL3 chip (field of first Ab 1-6F1)
[12] = molecular target: KIR2DL1(R131W)-hFc (human) (UniProt P43626); assay: ELISA, KIR2DL1(R131W)-hFc captured via goat anti-human antibodies, mAb titrated, peroxidase anti-mouse, A450 [panel DF200]
[13] = molecular target: recombinant KIR2DL3 protein (entire extracellular domain, produced in E. coli, refolded) (human) (UniProt P43628); assay: BIAcore, second Ab on KIR2DL3 chip with first Ab (competitor) 1-6F1 bound
immobilized KIR2DS1 [14] = molecular target: immobilized KIR2DS1 (UniProt Q14954); assay: BIAcore, second Ab on KIR2DS1 chip with first Ab (competitor) 1-7F9 bound
[15] = molecular target: recombinant KIR2DL1 protein (entire extracellular domain, produced in E. coli, refolded) (human) (UniProt P43626); assay: BIAcore, direct binding of second Ab to KIR2DL1 chip (field of first Ab 1-6F5)
[16] = molecular target: recombinant KIR2DL3 protein (entire extracellular domain, produced in E. coli, refolded) (human) (UniProt P43628); assay: BIAcore competition on KIR2DL3 chip; first Ab DF200, second Ab (competitor) 1-6F5
immobilized KIR2DS1 [17] = molecular target: immobilized KIR2DS1 (UniProt Q14954); assay: BIAcore competition on KIR2DS1 chip; first Ab DF200, second Ab (competitor) Pan2D
[18] = molecular target: recombinant KIR2DL1 protein (entire extracellular domain, produced in E. coli, refolded) (human) (UniProt P43626); assay: BIAcore, second Ab on KIR2DL1 chip with first Ab (competitor) 1-6F5 bound
immobilized KIR2DS1 [19] = molecular target: immobilized KIR2DS1 (UniProt Q14954); assay: BIAcore competition on KIR2DS1 chip; first Ab DF200, second Ab (competitor) 1-4F1
[20] = molecular target: recombinant KIR2DL1 protein (entire extracellular domain, produced in E. coli, refolded) (human) (UniProt P43626); assay: BIAcore competition on KIR2DL1 chip; first Ab DF200, second Ab (competitor) 1-4F1
immobilized KIR2DS1 [21] = molecular target: immobilized KIR2DS1 (UniProt Q14954); assay: BIAcore competition on KIR2DS1 chip; first Ab DF200, second Ab (competitor) 1-7F9
[22] = molecular target: KIR2DL1-hFc (complete extra-cellular domain of KIR2DL1, amino acids H1-H224, wild-type, fused to human Fc) (human) (UniProt P43626); assay: ELISA, KIR2DL1-hFc captured via goat anti-human antibodies, mAb titrated, peroxidase anti-mouse, A450 [panel DF200]
[23] = molecular target: recombinant KIR2DL3 protein (entire extracellular domain, produced in E. coli, refolded) (human) (UniProt P43628); assay: BIAcore, direct binding of second Ab to KIR2DL3 chip (field of first Ab 1-7F9)
[24] = molecular target: recombinant KIR2DL1 protein (entire extracellular domain, produced in E. coli, refolded) (human) (UniProt P43626); assay: BIAcore competition on KIR2DL1 chip; first Ab DF200, second Ab (competitor) EB6
[25] = molecular target: recombinant KIR2DL3 protein (entire extracellular domain, produced in E. coli, refolded) (human) (UniProt P43628); assay: BIAcore competition on KIR2DL3 chip; first Ab DF200, second Ab (competitor) 1-7F9
[26] = molecular target: recombinant KIR2DL1 protein (entire extracellular domain, produced in E. coli, refolded) (human) (UniProt P43626); assay: BIAcore, direct binding of second Ab to KIR2DL1 chip (field of first Ab 1-7F9)
[27] = molecular target: recombinant KIR2DL3 protein (entire extracellular domain, produced in E. coli, refolded) (human) (UniProt P43628); assay: BIAcore, second Ab on KIR2DL3 chip with first Ab (competitor) 1-6F5 bound
[28] = molecular target: recombinant KIR2DL1 protein (entire extracellular domain, produced in E. coli, refolded) (human) (UniProt P43626); assay: BIAcore, direct binding of second Ab to KIR2DL1 chip (field of first Ab 1-6F1)
[29] = molecular target: recombinant KIR2DL1 protein (entire extracellular domain, produced in E. coli, refolded) (human) (UniProt P43626); assay: BIAcore competition on KIR2DL1 chip; first Ab DF200, second Ab (competitor) 1-6F5
[30] = molecular target: recombinant KIR2DL3 protein (entire extracellular domain, produced in E. coli, refolded) (human) (UniProt P43628); assay: BIAcore, direct binding of second Ab to KIR2DL3 chip (field of first Ab 1-6F5)
[31] = molecular target: recombinant KIR2DL1 protein (entire extracellular domain, produced in E. coli, refolded) (human) (UniProt P43626); assay: BIAcore competition on KIR2DL1 chip; first Ab DF200, second Ab (competitor) 1-7F9
[32] = molecular target: recombinant KIR2DL1 protein (entire extracellular domain, produced in E. coli, refolded) (human) (UniProt P43626); assay: BIAcore competition on KIR2DL1 chip; first Ab DF200, second Ab (competitor) Pan2D
[33] = molecular target: recombinant KIR2DL1 protein (entire extracellular domain, produced in E. coli, refolded) (human) (UniProt P43626); assay: BIAcore, second Ab on KIR2DL1 chip with first Ab (competitor) 1-6F1 bound
[34] = molecular target: recombinant KIR2DL3 protein (entire extracellular domain, produced in E. coli, refolded) (human) (UniProt P43628); assay: BIAcore competition on KIR2DL3 chip; first Ab gl183, second Ab (competitor) 1-7F9
[35] = molecular target: recombinant KIR2DL3 protein (entire extracellular domain, produced in E. coli, refolded) (human) (UniProt P43628); assay: BIAcore competition on KIR2DL3 chip; first Ab gl183, second Ab (competitor) Pan2D
[36] = molecular target: recombinant KIR2DL3 protein (entire extracellular domain, produced in E. coli, refolded) (human) (UniProt P43628); assay: BIAcore competition on KIR2DL3 chip; first Ab gl183, second Ab (competitor) DF200
[37] = molecular target: recombinant KIR2DL3 protein (entire extracellular domain, produced in E. coli, refolded) (human) (UniProt P43628); assay: BIAcore competition on KIR2DL3 chip; first Ab gl183, second Ab (competitor) 1-6F1
[38] = molecular target: recombinant KIR2DL3 protein (entire extracellular domain, produced in E. coli, refolded) (human) (UniProt P43628); assay: BIAcore competition on KIR2DL3 chip; first Ab gl183, second Ab (competitor) 1-4F1

immobilized KIR2DS1, sequence (Q14954 22-245 limits assumed): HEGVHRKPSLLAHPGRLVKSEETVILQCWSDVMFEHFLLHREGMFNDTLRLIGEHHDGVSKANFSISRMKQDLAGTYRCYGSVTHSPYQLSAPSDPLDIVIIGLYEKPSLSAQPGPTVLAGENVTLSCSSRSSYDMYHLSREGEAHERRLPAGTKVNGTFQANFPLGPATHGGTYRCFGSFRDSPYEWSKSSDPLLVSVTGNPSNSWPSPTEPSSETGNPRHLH
recombinant KIR2DL1 protein (entire extracellular domain, produced in E. coli, refolded) (human), sequence (P43626 22-245): as the sequence (Q14954 22-245 limits assumed) above, with K70T, L90V, P114L, T154P, N163D, R182H, E216K counted along it
recombinant KIR2DL3 protein (entire extracellular domain, produced in E. coli, refolded) (human), sequence (P43628 22-245): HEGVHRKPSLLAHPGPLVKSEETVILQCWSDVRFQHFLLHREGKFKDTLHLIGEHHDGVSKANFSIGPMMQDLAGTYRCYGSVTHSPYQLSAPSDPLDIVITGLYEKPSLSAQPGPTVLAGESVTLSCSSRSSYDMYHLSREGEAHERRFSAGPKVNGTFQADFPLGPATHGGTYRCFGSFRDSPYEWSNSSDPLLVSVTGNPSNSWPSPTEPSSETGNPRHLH
KIR2DL1(R131W)-hFc (human), sequence (P43626 22-245 R152W): as the sequence (Q14954 22-245 limits assumed) above, with K70T, L90V, P114L, R131W, T154P, N163D, R182H, E216K counted along it
KIR2DL1-hFc (complete extra-cellular domain of KIR2DL1, amino acids H1-H224, wild-type, fused to human Fc) (human), sequence (P43626 22-245): as the sequence (Q14954 22-245 limits assumed) above, with K70T, L90V, P114L, T154P, N163D, R182H, E216K counted along it

“monoclonal antibody DF200 produced by hybridoma DF200” was tested, and the % inhibition of second Ab binding by first Ab [1] was 15%, the % inhibition of second Ab binding by first Ab [2] was 16% and the % inhibition of second Ab binding by first Ab [3] was 75%. It also gave a % inhibition of second Ab binding by first Ab [4] of 75%, an RU, binding with first Ab present (RU2) [5] of 210 RU and an RU, binding with first Ab present (RU2) [6] of 450 RU. The RU, direct binding (RU1) [7] was 1140 RU, the % inhibition of second Ab binding by first Ab [8] was 20% and the RU, direct binding (RU1) (immobilized KIR2DS1 [9]) was 900 RU. For the same substance, the RU, binding with first Ab present (RU2) [10] was 545 RU, the RU, direct binding (RU1) [11] was 790 RU and the EC50 (read off the curve) [12] was 20 nM. For the same substance, the RU, binding with first Ab present (RU2) [13] was 760 RU, the RU, binding with first Ab present (RU2) (immobilized KIR2DS1 [14]) was 1090 RU and the RU, direct binding (RU1) [15] was 350 RU. It also gave a % inhibition of second Ab binding by first Ab [16] of 4%, a % inhibition of second Ab binding by first Ab (immobilized KIR2DS1 [17]) of 70% and an RU, binding with first Ab present (RU2) [18] of 290 RU. For the same substance, the % inhibition of second Ab binding by first Ab (immobilized KIR2DS1 [19]) was 87%, the % inhibition of second Ab binding by first Ab [20] was 92% and the % inhibition of second Ab binding by first Ab (immobilized KIR2DS1 [21]) was 15%. It also gave an EC50 (read off the curve) [22] of 20 nM, an RU, direct binding (RU1) [23] of 770 RU and a % inhibition of second Ab binding by first Ab [24] of 90%. The % inhibition of second Ab binding by first Ab [25] was 62%, the RU, direct binding (RU1) [26] was 600 RU and the RU, binding with first Ab present (RU2) [27] was 760 RU. It also gave an RU, direct binding (RU1) [28] of 350 RU, a % inhibition of second Ab binding by first Ab [29] of 15% and an RU, direct binding (RU1) [30] of 800 RU. It also gave a % inhibition of second Ab binding by first Ab [31] of 27%, a % inhibition of second Ab binding by first Ab [32] of 80% and an RU, binding with first Ab present (RU2) [33] of 310 RU.
Substance GL183 (IgG1 anti KIR2DL3) (antibody) has an RU, binding with first Ab present (RU2) [5] of 330 RU, a % inhibition of second Ab binding by first Ab [34] of 76% and an RU, binding with first Ab present (RU2) [6] of 200 RU. It also gave a % inhibition of second Ab binding by first Ab [35] of 40%, an RU, direct binding (RU1) [7] of 1240 RU and an RU, direct binding (RU1) [11] of 620 RU. For the same substance, the RU, binding with first Ab present (RU2) [13] was 570 RU, the % inhibition of second Ab binding by first Ab [36] was 8% and the RU, direct binding (RU1) [23] was 800 RU. The % inhibition of second Ab binding by first Ab [37] was 18% and the % inhibition of second Ab binding by first Ab [38] was 75%.

Reference: patent US20140193430A1
